Reference: patent publication US8492329B2, “Bioactive peptides and methods of using same” (Compugen Ltd., priority 2007, dated 2013)

Assays:
Assay type in all cases: cell-based
[1] = molecular target: T1, GPR135 (RXFP3) (Homo sapiens, UniProt Q9NSD7); test: cAMP HTRF assay on Euroscreen RXFP3 recombinant cells; conditions: increasing concentrations, 30 min; FIG. 5
T1 construct: host or cells: CHO-K1 recombinant cell line (Euroscreen)
T1 sequence (Q9NSD7 1-469): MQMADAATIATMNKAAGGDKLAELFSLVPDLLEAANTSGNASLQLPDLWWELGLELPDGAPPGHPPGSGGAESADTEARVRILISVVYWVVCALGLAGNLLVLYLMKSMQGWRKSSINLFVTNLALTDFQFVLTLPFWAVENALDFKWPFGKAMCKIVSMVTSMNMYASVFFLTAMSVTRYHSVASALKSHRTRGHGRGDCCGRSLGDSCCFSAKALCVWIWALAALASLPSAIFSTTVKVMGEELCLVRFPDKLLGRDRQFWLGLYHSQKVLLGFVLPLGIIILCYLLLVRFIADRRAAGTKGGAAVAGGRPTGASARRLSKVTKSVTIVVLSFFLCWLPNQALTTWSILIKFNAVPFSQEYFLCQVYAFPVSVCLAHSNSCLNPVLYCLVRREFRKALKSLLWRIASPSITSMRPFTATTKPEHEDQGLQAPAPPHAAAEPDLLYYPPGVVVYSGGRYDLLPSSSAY
Experimental: The ability of P59C13V (SEQ ID NO: 6) and H3 Relaxin to activate CHO-K1 cells transfected by GPR135 (RXFP3), which is a non-LGR, Relaxin related receptor, was tested. The assay was performed by Euroscreen. For cAMP concentration analysis, Euroscreen cat. ES-656-A-cells (RXFP3, Euroscreen cat. ES-656-A) grown to mid-log phase in culture media without antibiotics were detached with PBS-EDTA, centrifuged and resuspended in assay buffer at a concentration of […]. The test was performed in 96 well plates. For agonist testing, 12 μl of cells (5×10^3 cells/well) were mixed with 12 μl of agonist Either H3-Relaxin or P59C13V (P59) (SEQ ID NO: 6) at increasing concentrations. The plates were then incubated for 30 min at room temperature. After addition of the lysis buffer, cAMP concentrations were estimated, according to the manufacturer specification, with the HTRF kit from Cis-Bio International (cat no 62AM2PEB).
.Relaxin 3 Fit (Eeuroscreen) was used as a positive control. RXFP3 (GPCR135) transfected cells were challenged with increasing concentrations of Relaxin 3 (H3 Relaxin—as a positive control—[…]) or P59C13V (P59) (SEQ ID NO: 6) (1 nM-3 uM).

[2] = molecular target: T2, LGR8 (RXFP2) (Homo sapiens, UniProt Q8WXD0); test: cAMP accumulation (Hit Hunter cAMP kit) in CHO-K1 cells transiently transfected with LGR8; design: expressed in transfected cells; host or cells: CHO-K1 (transient); conditions: 20 uM Forskolin, FIG. 2
T2 sequence (Q8WXD0 whole entry): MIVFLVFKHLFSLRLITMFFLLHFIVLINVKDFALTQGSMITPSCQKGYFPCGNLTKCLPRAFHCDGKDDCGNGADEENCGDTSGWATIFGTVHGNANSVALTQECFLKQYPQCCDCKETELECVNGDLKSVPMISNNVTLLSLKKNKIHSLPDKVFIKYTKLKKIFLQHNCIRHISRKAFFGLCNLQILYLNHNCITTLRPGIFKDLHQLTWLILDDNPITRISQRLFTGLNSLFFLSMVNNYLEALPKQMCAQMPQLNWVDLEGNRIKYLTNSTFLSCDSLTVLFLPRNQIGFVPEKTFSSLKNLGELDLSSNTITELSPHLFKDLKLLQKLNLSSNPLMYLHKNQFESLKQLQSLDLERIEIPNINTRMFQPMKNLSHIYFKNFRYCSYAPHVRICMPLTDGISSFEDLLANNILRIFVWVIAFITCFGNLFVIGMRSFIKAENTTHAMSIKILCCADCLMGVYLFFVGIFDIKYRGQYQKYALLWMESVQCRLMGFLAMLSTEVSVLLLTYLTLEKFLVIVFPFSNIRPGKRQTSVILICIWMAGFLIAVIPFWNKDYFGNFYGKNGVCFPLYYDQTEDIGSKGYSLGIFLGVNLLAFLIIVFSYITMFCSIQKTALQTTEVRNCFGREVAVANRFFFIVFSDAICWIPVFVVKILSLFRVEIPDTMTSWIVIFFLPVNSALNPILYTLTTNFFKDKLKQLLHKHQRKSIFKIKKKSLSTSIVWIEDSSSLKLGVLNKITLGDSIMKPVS
Experimental: The ability of Peptides to affect cAMP concentration was examined in CHO-K1 cells transiently transfected with LGR7 (RXFP1) or LGR8 (RXFP2). The experiment measured cAMP concentration in response to the addition of the peptides.
LGR7 (RXFP1) or LGR8 (RXFP2) were transiently transfected into CHO-K1 cells as follows: Cells (12 million) were plated into T75 flasks on the day preceding transfection. Cells were transfected with a GPCR DNA and Gα16 using a lipid technique according to the manufacturer's recommendation. Cells were transfected for 5 hours, then re-plated into 96-well dishes (60,000 cells per well) and grown overnight. Transfected cells were plated into 24 wells of a 96-well plate. Cells were pre-treated with 0.5 mM IBMX (stimulation buffer) for 10 min at 37° C., then stimulated with either a positive control (Relaxin 2) or a candidate peptide (for Gs functional examination), followed by stimulation or a preincubation with 10 μM forskolin (for Gi functional examination). Following a 20 minutes stimulation by incubation with 1 μM of either positive control or the tested peptides, either with or without forskolin, intracellular cAMP was assayed using the Hit Hunter cAMP kit (DiscoveRx Corporation) according to the manufacturer's recommended protocol. Data was converted to nmol of cAMP by running a standard cAMP curve.
Relaxin was used as a positive control. cAMP level was elevated by pre-treatment with forskolin.
The transfected CHO-K1 cells were treated with 10 uM of Forskolin (Applied cell sciences (ACS)) for 10 minutes and then challenged with 1 uM of H2 Relaxin (ACS) (as a positive control), 1 uM of Peptide P59C13V (P59) (SEQ ID NO: 6), and Peptide P74C13V (P74) (SEQ ID NO: 10).
A dose response effect of P59C13V (P59) and P74C13V (P74) on CHO-K1 cells transiently transfected with LGR8 (RXFP2) was further examined (Method as above). CHO-K1 cells transiently transfected with LGR8 (RXFP2) were treated with 20 uM of Forskolin for 10 minutes and then challenged with either INSL3 (as a positive control), P59C13V (SEQ ID NO: 6) or P74C13V (P74) (SEQ ID NO: 10) at increasing concentrations from 1 nM to 10 uM.

[3] = molecular target: T2, LGR8 (RXFP2); test: pCRE-β-gal reporter assay in Forskolin-treated CHO-K1 cells transiently transfected with LGR8; design: expressed in transfected cells; host or cells: CHO-K1 (transient); conditions: 5 uM Forskolin, FIG. 8A-B
Experimental: The ability of P74C13V (P74) (SEQ ID NO: 10) and P59C13V (P59) and P59C13V-Amide (P59-Amide) (SEQ ID NO: 6 and 5 respectively) to activate LGR7 (RXFP1) and LGR8 (RXFP2) was further tested by testing the ability of these peptides to influence cAMP activity induced by 5 μM Forskolin in CHO-K1 cells transiently transfected with LGR7/pCRE-β-gal or LGR8/pCRE-β-gal as compared to H2 relaxin and INSL3 respectively.
LGR8 transfected CHO-K1 cells were treated with 5 uM of Forskolin to stimulate cAMP. The cells were then challenged with increasing doses of INSL3 (as positive control), P74C13V (P74) (SEQ ID NO: 10), P59C13V with (P59-Amide) and without (P59) amide (SEQ ID NO: 5 and 6, respectively) and P59S-Amide (P59-S) (SEQ ID NO: 1). […] The results are presented as a percentage of Forskolin activity at various concentrations of the peptide (logarithmic scale). Each point represents three unrelated repeats for each experiment.

Row | Substance | cAMP activation (Gs) of RXFP3 [1] | change in cAMP, dose response, higher concentrations ([2]; concentrations higher than 100 nM (up to 10 uM)) | change in cAMP, dose response, lower concentrations ([2]; concentrations lower than 100 nM) | CRE activation pattern relative to Forskolin [3]
1 | H3 Relaxin: Relaxin 3 (Euroscreen), ligand of RXFP3, positive control [reference compound] | strong cAMP stimulation | – | – | –
2 | INSL3: Leydig insulin-like 3 peptide, high affinity ligand of LGR8, positive control (chain 1 AAATNPARYCCLSGCTQQDLLTLCPY; chain 2 PTPEMREKLCGHHFVRALVRVCGGPRWSTEA) [reference compound] | – | sharp decrease (Gi effect) | slight dose dependent increase | increased activation at higher concentrations
